Our source for the dMFI, Response and koff values is patent publication US20260209362A1 (VIB VZW, published 2026).

B1: anti-IL-12Rβ2 VHH clone 3CAHM11 (VHH, not shown: small tags and cut ends)
VHH: QVQLQESGGGLVQAGGSLRLSCAASGRTFNNYAMAWFRQAPGKEREFIAAITRSDTTLYIDSVKGRFTISRDNAKNTVALQMNSLKPEDTAVYYCAAGMPYSYSDYPRDSKYDYWGRGTQVTVSS
notes: tested as periplasmic extract
B2: anti-IL-12Rβ2 VHH clone 3CRHM73 (VHH, not shown: small tags and cut ends)
VHH: QVQLQESGGGLVQAGGSLSLSCAASGSAFRLNFMGWYRQAPGKQRELVAAINSGGTEIYHDSVKGRFTISRDNADSTVWLQMNSLKPDDTAVYYCAADRGISWSKLAGGMDYWGKGTQVTVSS
notes: tested as periplasmic extract; also called 21060
B3: anti-IL-12Rβ2 VHH clone 3CRHM99 (VHH, not shown: small tags and cut ends)
VHH: QVQLQESGGGLVQPGGSLRLSCAASGISSSRLHVGWFRQSPGKEREFVAAISLSGGTQAYTDSVKGRFTISGDNVKNTAYLQMNSLRPEDTAVYYCAARERFIWTWSDLTYDYWGQGTQVTVSS
notes: tested as periplasmic extract; also called 21062
B4: anti-IL-12Rβ2 VHH clone 3CRHM14 (VHH, not shown: small tags and cut ends)
VHH: QVQLQESGGGLVQAGGSLRLSCAASGRTFSNYAMAWFRQAPGTEREFVAGLSGSGGDTEFYDDSVKGRFAISRDSAKNTVWLQMNSLKPEDTAVYYCAAATHVVVHYGLVRRRGTYDYWGQGTQVTVSS
notes: tested as periplasmic extract

One assay deals with T1, human IL-12Rβ2 expressed on cells (human, UniProt Q99665 24-862).
T1 construct: HEK293T cells transiently transfected with a human IL-12Rβ2 plasmid (Genscript OHu21785); also called hIL-12RB2
T1 sequence: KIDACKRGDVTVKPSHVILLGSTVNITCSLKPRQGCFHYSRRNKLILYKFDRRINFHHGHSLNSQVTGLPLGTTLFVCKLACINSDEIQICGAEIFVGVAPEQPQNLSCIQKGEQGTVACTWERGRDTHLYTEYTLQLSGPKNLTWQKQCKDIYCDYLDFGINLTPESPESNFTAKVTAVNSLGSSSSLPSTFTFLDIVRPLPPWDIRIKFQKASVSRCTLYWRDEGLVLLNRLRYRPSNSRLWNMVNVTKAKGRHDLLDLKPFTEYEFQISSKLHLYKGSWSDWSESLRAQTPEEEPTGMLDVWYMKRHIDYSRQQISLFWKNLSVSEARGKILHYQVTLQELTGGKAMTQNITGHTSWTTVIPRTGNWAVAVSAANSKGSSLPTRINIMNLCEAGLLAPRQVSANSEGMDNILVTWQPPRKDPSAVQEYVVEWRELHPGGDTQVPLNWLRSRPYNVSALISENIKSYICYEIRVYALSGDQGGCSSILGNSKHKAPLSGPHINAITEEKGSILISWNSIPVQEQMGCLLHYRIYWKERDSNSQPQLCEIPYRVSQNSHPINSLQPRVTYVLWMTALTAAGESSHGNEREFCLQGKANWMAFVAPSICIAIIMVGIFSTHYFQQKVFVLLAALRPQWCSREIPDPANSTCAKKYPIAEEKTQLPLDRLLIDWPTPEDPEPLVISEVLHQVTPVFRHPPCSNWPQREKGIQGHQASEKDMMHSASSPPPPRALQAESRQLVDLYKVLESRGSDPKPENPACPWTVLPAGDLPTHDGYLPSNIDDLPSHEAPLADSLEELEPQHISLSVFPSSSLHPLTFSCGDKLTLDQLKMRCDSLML
The assay is described as follows: flow cytometry, P.E. VHH on HEK293T cells transiently expressing hIL-12RB2. A general note: Flow cytometry measures light scatter and fluorescence of single cells or particles in a stream.
For B1, the dMFI was determined as 684.

B2 came in with a dMFI of 297.

With B3, the dMFI was determined as 458.

For the molecule B4, the dMFI worked out at 589.

A further assay has as its target T2, biotinylated recombinant mouse IL-12Rβ2 (produced in-house) (mouse, UniProt P97378 24-637, random biotinylated).
T2 construct: also called mIL-12RB2; mIL12RB2
T2 sequence: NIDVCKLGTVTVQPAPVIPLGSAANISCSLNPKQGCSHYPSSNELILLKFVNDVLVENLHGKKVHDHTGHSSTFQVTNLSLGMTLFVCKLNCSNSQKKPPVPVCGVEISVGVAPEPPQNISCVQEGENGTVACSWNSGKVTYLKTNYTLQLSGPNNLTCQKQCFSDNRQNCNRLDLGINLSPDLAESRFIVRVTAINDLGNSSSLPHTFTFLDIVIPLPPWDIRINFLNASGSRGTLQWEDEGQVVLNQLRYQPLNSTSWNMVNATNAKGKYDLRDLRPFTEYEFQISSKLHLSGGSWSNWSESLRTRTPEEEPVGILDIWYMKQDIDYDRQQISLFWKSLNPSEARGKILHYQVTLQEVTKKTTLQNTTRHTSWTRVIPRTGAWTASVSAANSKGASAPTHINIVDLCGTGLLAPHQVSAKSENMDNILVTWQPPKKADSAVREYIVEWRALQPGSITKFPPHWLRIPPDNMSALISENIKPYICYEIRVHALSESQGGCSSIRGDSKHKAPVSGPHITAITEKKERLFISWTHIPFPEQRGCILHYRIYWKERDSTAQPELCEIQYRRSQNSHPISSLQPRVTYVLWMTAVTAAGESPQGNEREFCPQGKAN
Kind of assay: BLI (Octet), P.E. VHH on immobilised biotinylated mIL-12RB2.
Regarding B1, the Response worked out at 1.03.

B2: the Response stood at 0.944.

B3: the Response came to 0.812.

Consider B4, for which the Response turned out to be 0.957.

The target of another assay is T3, biotinylated recombinant human IL-12Rβ2 (produced in-house) (human, UniProt Q99665 24-622, random biotinylated).
T3 construct: also called hIL-12RB2; hIL12RB2
T3 sequence: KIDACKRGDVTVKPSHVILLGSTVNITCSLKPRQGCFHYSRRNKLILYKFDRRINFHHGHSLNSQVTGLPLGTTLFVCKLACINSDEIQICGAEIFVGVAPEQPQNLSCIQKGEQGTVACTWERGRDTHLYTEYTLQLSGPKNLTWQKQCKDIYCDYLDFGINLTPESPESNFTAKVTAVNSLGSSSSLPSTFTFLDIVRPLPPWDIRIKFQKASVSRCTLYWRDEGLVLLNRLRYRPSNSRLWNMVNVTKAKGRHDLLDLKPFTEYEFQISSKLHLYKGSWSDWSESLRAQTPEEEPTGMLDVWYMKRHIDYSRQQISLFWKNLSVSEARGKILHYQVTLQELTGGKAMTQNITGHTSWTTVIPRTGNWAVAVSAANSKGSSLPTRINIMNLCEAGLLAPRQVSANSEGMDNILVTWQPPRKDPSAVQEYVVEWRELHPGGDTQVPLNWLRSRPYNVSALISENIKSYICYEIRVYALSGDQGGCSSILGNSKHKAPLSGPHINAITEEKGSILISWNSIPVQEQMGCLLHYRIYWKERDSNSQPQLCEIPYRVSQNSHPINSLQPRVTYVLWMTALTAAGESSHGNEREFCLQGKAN
Kind of assay: BLI (Octet), P.E. VHH on immobilised biotinylated hIL-12RB2, 1:1 model. For orientation: Biolayer interferometry detects binding as a change in optical thickness at a sensor tip.
Take B1: the koff (usually a measure of how fast the partners let go of each other) was 0.00519 s⁻¹.

Regarding B2, the koff was determined as 0.00605 s⁻¹.

Take B3: the koff stood at 0.00634 s⁻¹.

As for B4, the koff came to 0.00532 s⁻¹.
